Test results as given in the supplement of paper PMC10567573.
± gives the standard deviation.

Assay: protein stability index of a GFP-peptide fusion (GPS, HEK-293T) (PSI 1-6); higher = more stable
[1] = treatment: DMSO, c terminus: a fixed tail appended
[2] = treatment: MLN4924 1 uM, 8 h, c terminus: a fixed tail appended
[3] = treatment: DMSO, c terminus: native
[4] = treatment: MLN4924 1 uM, 8 h, c terminus: native
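Note: 24-mer peptide tiles fused after GFP, lentivirally expressed, FACS-sorted into six equal bins by GFP/DsRed ratio, decoded by Illumina sequencing, PSI is the read-weighted mean bin number.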

MHSFPPLLLLLFWGVVSHSFPATL [MMP1]
protein stability index [1]: 3.14 ± 0.31
protein stability index [2]: 3.12 ± 0.25

MKRDVQEGQARCLAHLGRHMEALE [C8orf76]
protein stability index [1]: 3.66 ± 0.22
protein stability index [2]: 3.97 ± 0.35

MLNMWKVRELVDKATNVVMNYSEI [CLINT1]
protein stability index [1]: 2.4 ± 0.17
protein stability index [2]: 2.23 ± 0.22

MLRTGLGVIRMWADEGSRNSRFQM [NETO1]
protein stability index [1]: 2.5 ± 0.11
protein stability index [2]: 2.39 ± 0.4

MMDLRNTPAKSLDKFIEDYLLPDT [OAS1]
protein stability index [1]: 3.04 ± 0.16
protein stability index [2]: 3.15 ± 0.28

MNYSEIESKVREATNDDPWGPSGQ [CLINT1]
protein stability index [1]: 4.84 ± 0.22
protein stability index [2]: 4.96 ± 0.14

MPNGCSDDVLPWRRTAENKLDTKY [DCTD]
protein stability index [1]: 4 ± 0.1
protein stability index [2]: 3.87 ± 0.29

MSAPGSPDQAYDFLLKFLLVGDRD [RAB40A]
protein stability index [1]: 2.27 ± 0.23
protein stability index [2]: 2.42 ± 0.38

MSRMQSKEYPVVPRSTVRQKVASN [TBX5]
protein stability index [1]: 4.25 ± 0.24
protein stability index [2]: 4.15 ± 0.087

MSTEEQYRIRQVNIYYYLEDDSMS [EFHC1]
protein stability index [1]: 2.19 ± 0.26
protein stability index [2]: 2.13 ± 0.3

MSVLWLEHDRETRMQYAPDLMKRL [KLHL14]
protein stability index [1]: 2.35 ± 0.11
protein stability index [2]: 2.45 ± 0.15

MSWAKLARQATNLKVNFFFERIMK [FBXO39]
protein stability index [1]: 2.34 ± 0.19
protein stability index [2]: 2.22 ± 0.35

MTAPAGPRGSETERLLTPNPGYGT [MCOLN1]
protein stability index [1]: 4.23 ± 0.22
protein stability index [2]: 4.2 ± 0.42

MVEDDSRKEMTAACTPRRRIINLT [MLH1]
protein stability index [1]: 3.95 ± 0.059
protein stability index [2]: 3.93 ± 0.29

NAIRVHHALATRASDYSKKSNVLK [PSD2]
protein stability index [1]: 3.46 ± 0.31
protein stability index [2]: 3.5 ± 0.12

NCKLATRAKDFLPADIQAQFAISR [SNX8]
protein stability index [1]: 2.45 ± 0.21
protein stability index [2]: 2.73 ± 0.52

NDIPHSIPLEQGSSCNGPGQTTGH [FAN1]
protein stability index [1]: 5.24 ± 0.18
protein stability index [2]: 5.23 ± 0.1

NDLDRIAQPNYIPTQQDVLRTRVK [GNAI1]
protein stability index [1]: 4.81 ± 0.13
protein stability index [2]: 4.92 ± 0.15

NDMSPSNNVVPIHVPPTTENKPKV [RAB11A]
protein stability index [1]: 5.42 ± 0.12
protein stability index [2]: 5.33 ± 0.19

NELQHDLDVVSDALAKVSRKPSI [TPH1]
protein stability index [3]: 5.17 ± 0.39
protein stability index [4]: 5.33 ± 0.11

NGHTDVADVLLQAGADLEHESEGG [ANKRD17]
protein stability index [1]: 5.37 ± 0.17
protein stability index [2]: 5.28 ± 0.048

NGRGELVESLKRFCASTRLPPTPL [AUP1]
protein stability index [1]: 3.18 ± 0.38
protein stability index [2]: 2.94 ± 0.5

NGRHKIPESQFPEFSTSLFSGSLE [SRPK2]
protein stability index [1]: 3.66 ± 0.22
protein stability index [2]: 3.8 ± 0.19

NHANGLTLVSRAHQLVMEGYNWCH [PPP2CA]
protein stability index [1]: 2.6 ± 0.16
protein stability index [2]: 2.49 ± 0.29

NHCMLSPSSSGHLADSDTLSSAEE [C18orf25]
protein stability index [1]: 5.36 ± 0.19
protein stability index [2]: 5.4 ± 0.098

NHGYAEPAAGRELPPDMTVVPGDH [KCNA3]
protein stability index [1]: 5.21 ± 0.14
protein stability index [2]: 5.24 ± 0.24

NHVAVAARYAQQKHRIRRVLIVDW [HDAC6]
protein stability index [1]: 2.34 ± 0.72
protein stability index [2]: 2.09 ± 0.27

NISGLRFETQLKTLCQFPETLLGD [KCNA3]
protein stability index [1]: 2.89 ± 0.26
protein stability index [2]: 3.03 ± 0.23

NKQAYDLAKALLKRTAQAIEPYIT [PDS5B]
protein stability index [1]: 2.54 ± 0.46
protein stability index [2]: 2.63 ± 0.37

NLIKSENYGKILVEKNEHCIENNI [R3HDM1]
protein stability index [1]: 3.5 ± 0.5
protein stability index [2]: 3.49 ± 0.65

NLIYRDVKPENFLIGRPGNKTQQV [CSNK1G3]
protein stability index [1]: 3.27 ± 0.1
protein stability index [2]: 3.25 ± 0.22

NLLLAKGANINAFDKKDRRALHWA [ANKRD44]
protein stability index [1]: 2.32 ± 0.34
protein stability index [2]: 2.5 ± 0.17

NLPCNKFKNRLVNIMPYESTRVCL [PTPRD]
protein stability index [1]: 2.15 ± 0.23
protein stability index [2]: 2.65 ± 0.96

NMEELTEVITAAEFHPHHCNTFVY [PPP2R2B]
protein stability index [1]: 2.38 ± 0.25
protein stability index [2]: 2.59 ± 0.33

NMLFQQNKDGIGEICLWGRHIFMG [ACSBG2]
protein stability index [1]: 2.3 ± 0.33
protein stability index [2]: 2.3 ± 0.54

NNDCRIYVGNLPPDIRTKDIEDVF [SRSF1]
protein stability index [1]: 3.09 ± 0.31
protein stability index [2]: 3.3 ± 0.37

NPFQDPAVIQHRPSRQYATLDVYN [SCAMP3]
protein stability index [1]: 3.6 ± 0.28
protein stability index [2]: 3.62 ± 0.19

NPKWTKWLQKLCCPCCFGRDCLVL [PI4K2A]
protein stability index [1]: 2.79 ± 0.3
protein stability index [2]: 2.72 ± 0.15

NPNSSSGKGSGGNAGSYIPSYTSW [DLX1]
protein stability index [1]: 3.44 ± 0.14
protein stability index [2]: 3.43 ± 0.4

NQSVEPKKEEPEPETEAVSSSQEI [ZMYND11]
protein stability index [1]: 5.25 ± 1
protein stability index [2]: 5.29 ± 0.52

NRRGGPPFAFVEFEDPRDAEDAVY [SRSF1]
protein stability index [1]: 3.91 ± 0.21
protein stability index [2]: 4.21 ± 0.26

NSASDPSLKDGLSDSDSELSSSEG [PSD2]
protein stability index [1]: 5.69 ± 0.14
protein stability index [2]: 5.61 ± 0.19

NSDQTTCRIQDLCAMEDHNCEQLC [MATN2]
protein stability index [1]: 4.04 ± 0.29
protein stability index [2]: 4.05 ± 0.23

NSKEDAFSGTDWMLEKMDLKEFDL [ATF4]
protein stability index [1]: 4.6 ± 0.26
protein stability index [2]: 4.55 ± 0.2

NSSVWNSHLQTNYSKTFQRSNVDF [NECAB1]
protein stability index [1]: 2.65 ± 0.18
protein stability index [2]: 2.77 ± 0.32

NTLSVSYKKGRMMKDISNLEENDE [SLC6A17]
protein stability index [1]: 4.91 ± 0.3
protein stability index [2]: 5.08 ± 0.23

NTQTPVQPPPPPPPPPMQPTVPSA [CCDC6]
protein stability index [1]: 5.05 ± 0.48
protein stability index [2]: 5 ± 0.1

NVIETCKEAGVQKLILTSSASVIF [NSDHL]
protein stability index [1]: 2.69 ± 0.27
protein stability index [2]: 2.86 ± 0.71

NVLKIAPESAIKFMAYEQIKRLVG [SLC25A25]
protein stability index [1]: 3.07 ± 0.54
protein stability index [2]: 3.04 ± 0.67

NVMTQSFGAVNLSSPSNMLPVRPQ [CLINT1]
protein stability index [1]: 3.86 ± 0.2
protein stability index [2]: 3.99 ± 0.51

NWATTPSSQKKDTSSSTVVSTQRS [TIA1]
protein stability index [1]: 4.83 ± 0.19
protein stability index [2]: 4.92 ± 0.18

PACLGQPHTPGKPTSSCTSRSAPP [FOXJ1]
protein stability index [1]: 4.51 ± 0.13
protein stability index [2]: 4.69 ± 0.11

PAFTVWCGSFQVTTGLQVPSAVRC [FSD1]
protein stability index [1]: 2.63 ± 0.6
protein stability index [2]: 2.56 ± 0.54

PAPPSDALLDLHFPSDHLGDLGDP [TFE3]
protein stability index [1]: 5 ± 0.23
protein stability index [2]: 5.1 ± 0.17

PATGRSGPLPPPPPGAGGPPMPPP [WAS]
protein stability index [1]: 4.74 ± 0.28
protein stability index [2]: 4.88 ± 0.22

PAVRQRVIEEAKTAFLLNIQLFEE [HMOX1]
protein stability index [1]: 2.66 ± 0.37
protein stability index [2]: 3.17 ± 0.26

PCELPCKEYDVARNTGAYTSSGLA [TEKT4]
protein stability index [1]: 4.18 ± 0.19
protein stability index [2]: 4.23 ± 0.13

PDCGKAFVSRYKLMRHMATHSPQK [PLAGL1]
protein stability index [1]: 2.88 ± 0.24
protein stability index [2]: 3 ± 0.22

PDECGKTEFTRFLCSSPLEAETPP [ATE1]
protein stability index [1]: 4.8 ± 0.071
protein stability index [2]: 4.88 ± 0.13

PDEMRMQALLIRERILGPSHPDTS [FEM1A]
protein stability index [1]: 3.29 ± 0.26
protein stability index [2]: 3.56 ± 0.19

PDPDAWLRALGELLRRDLGVGTSM [FANCE]
protein stability index [1]: 1.86 ± 0.28
protein stability index [2]: 1.9 ± 0.2

PEAAVLFRQMATALAHCHQHGLVL [TRIB3]
protein stability index [1]: 2.92 ± 0.55
protein stability index [2]: 2.88 ± 0.48

PEARSRDATPPVSPINMEDQERIK [JUNB]
protein stability index [1]: 5.37 ± 0.38
protein stability index [2]: 5.42 ± 0.33

PEEELDFFEILRLFFPVIYDVKYL [CNOT7]
protein stability index [1]: 2.35 ± 0.51
protein stability index [2]: 2.47 ± 0.61

PEELRKVFITYSMDTAMEVVKFVN [TRAF3IP2]
protein stability index [1]: 2.24 ± 0.46
protein stability index [2]: 2.08 ± 0.37

PEFELLWKDIIHNPQALSPQFTGI [INTS3]
protein stability index [1]: 2.16 ± 0.15
protein stability index [2]: 2.21 ± 0.32

PENTNRQLLLQFERLVVLDYIIRN [PI4K2A]
protein stability index [1]: 2.77 ± 0.34
protein stability index [2]: 2.56 ± 0.68

PFTRRYYKEKFGITDLPRIDVSKR [EFHC1]
protein stability index [1]: 3.01 ± 0.36
protein stability index [2]: 3.3 ± 0.095

PGAEEAQDPEGKGEQEHSQQKEEE [CHGA]
protein stability index [1]: 5.65 ± 0.15
protein stability index [2]: 5.58 ± 0.43

PGAPPGRDLASVPPELTASRQSFR [DVL3]
protein stability index [1]: 4.7 ± 0.23
protein stability index [2]: 4.84 ± 0.12

PGDFDRNVPRICGVCGDRATGFHF [VDR]
protein stability index [1]: 2.19 ± 0.13
protein stability index [2]: 2.64 ± 0.27

PGPAPGSPGELEEDLLLPGACPGA [WEE1]
protein stability index [1]: 5.24 ± 0.52
protein stability index [2]: 5.49 ± 0.13

PGPPAAPRARRRLGSGPDRELRKP [PWWP2B]
protein stability index [1]: 5.03 ± 0.56
protein stability index [2]: 5.12 ± 0.35

PGPREALSQLRVLCCEWLRPEKHT [ZNF232]
protein stability index [1]: 2.36 ± 0.21
protein stability index [2]: 2.15 ± 0.4

PGQEAQRVVCGIDSSMILTVPGQA [NEK8]
protein stability index [1]: 3.78 ± 0.23
protein stability index [2]: 3.81 ± 0.22

PGRRDEDAGEGIQCSQRMLSFSDA [TMEM175]
protein stability index [1]: 5.07 ± 0.18
protein stability index [2]: 4.91 ± 0.3

PGSNLNLLTNNSGTPKDHDSPENG [ETS2]
protein stability index [1]: 5.33 ± 0.22
protein stability index [2]: 5.31 ± 0.26

PKAQSAMSPYLVPDTQALCHHLPV [SMG5]
protein stability index [1]: 3.34 ± 0.2
protein stability index [2]: 3.38 ± 0.12

PKWGWEQLEVTCTPYLKETLNSIW [POMT2]
protein stability index [1]: 2.49 ± 0.58
protein stability index [2]: 2.12 ± 0.61

PLVLSYIDLSAWCYYCQAYVHHQA [HDAC6]
protein stability index [1]: 2.97 ± 0.81
protein stability index [2]: 3.27 ± 0.49

PLVTMDDAMERTVQSFRHLRRVK [NSDHL]
protein stability index [3]: 3 ± 0.25
protein stability index [4]: 3.23 ± 0.18

PMDLSTVKRKMDGREYPDAQGFAA [BRD3]
protein stability index [1]: 4.21 ± 0.2
protein stability index [2]: 4.38 ± 0.43

PPASARRLSVPRDSACDESSCIPK [IRX6]
protein stability index [1]: 5.33 ± 0.16
protein stability index [2]: 5.31 ± 0.14

PPGDIMFLLVQRFGELMRKLWNPR [USP39]
protein stability index [1]: 2.77 ± 0.31
protein stability index [2]: 2.77 ± 0.17

PPPHLLPEKHQVPEKLIWGDQDPL [WDR88]
protein stability index [1]: 4.53 ± 0.23
protein stability index [2]: 4.44 ± 0.15

PQLRICLRVSPAEQPRLEFLMRKC [FBXO33]
protein stability index [1]: 2.15 ± 0.48
protein stability index [2]: 2.11 ± 0.22

PQSLPSTPKAAWIREEGRCSSSDD [PBXIP1]
protein stability index [1]: 5.25 ± 0.2
protein stability index [2]: 5.27 ± 0.14

PQVLADLGSFESPANSETSDLTLY [PCDHGA10]
protein stability index [1]: 4.19 ± 0.36
protein stability index [2]: 4.38 ± 0.34

PRLHIVKADENNGFGSKNTAFCTH [TBX5]
protein stability index [1]: 3.43 ± 0.12
protein stability index [2]: 3.28 ± 0.049
